The source of these data is patent US20250179144A1 (UNIVERSITY OF MELBOURNE, published 2025).

Usually Kd stands for the free concentration of one partner at which half of the binding sites on the other are occupied at equilibrium, for simple one-to-one binding.

T1: BTN2A1 ectodomain homodimer, disulfide-linked (C-terminal Cys247, acidic or basic leucine zipper) (human, UniProt Q7KYR7 29-248; Q7KYR7 29-248)
T1 construct: Biotinylated and immobilised on a streptavidin chip in SPR; also called immobilized BTN2A1 homodimer; immobilised BTN2A1 ectodomain homodimer; not shown: linker and acidic leucine zipper; linker and basic leucine zipper
T1 sequence 1: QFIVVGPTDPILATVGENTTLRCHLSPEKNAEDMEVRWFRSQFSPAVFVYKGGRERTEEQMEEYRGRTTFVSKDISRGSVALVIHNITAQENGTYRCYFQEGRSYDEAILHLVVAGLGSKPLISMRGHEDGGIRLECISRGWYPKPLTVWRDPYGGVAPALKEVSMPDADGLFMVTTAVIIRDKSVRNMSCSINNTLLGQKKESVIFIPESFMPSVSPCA
T1 sequence 2: T1 sequence 1

B1: soluble BTN2A1 ectodomain lacking Cys247 (monomeric) (ligand)
chain: QFIVVGPTDPILATVGENTTLRCHLSPEKNAEDMEVRWFRSQFSPAVFVYKGGRERTEEQMEEYRGRTTFVSKDISRGSVALVIHNITAQENGTYRCYFQEGRSYDEAILHLVVAGLGSKPLISMRGHEDGGIRLECISRGWYPKPLTVWRDPYGGVAPALKEVSMPDADGLFMVTTAVIIRDKSVRNMSCSINNTLLGQKKESVIFIPESFMPSVSP
notes: C-terminal biotin ligase (AviTag) and His6 tags; Used as SPR analyte and in crystals; also called monomeric BTN2A1 ectodomain; full-length BTN2A1 ectodomain
B2: soluble BTN3A1 ectodomain (IgV-IgC), homodimer (ligand)
chain: not shown
notes: C-terminal biotin ligase (AviTag) and His6 tags; Analyte or immobilised ligand in SPR; streptavidin-PE tetramer in flow cytometry; also called BTN3A1 ectodomain homodimer; full-length BTN3A1 ectodomain
B3: monomeric BTN3A1 IgV domain (ligand)
chain: not shown

Assay [1] addresses T1, BTN2A1 ectodomain homodimer, …. The assay is described as follows: SPR; BTN2A1 ectodomain homodimer immobilised, soluble BTN2A1 ectodomain injected. Background: In SPR one partner is held on a chip, and binding of the other changes the refractive index at the surface.
Method: (§1) SPR experiments were conducted at 25° C. on a Biacore T200 instrument (GE Healthcare) using 10 mM HEPES-HCl (pH 7.4), 150 mM NaCl, 3 mM EDTA, and 0.05% Tween 20 buffer. Biotinylated BTN ectodomains were immobilized to 1,500-2,000 resonance units (RU) on a Biacore sensor chip SA pre-immobilized with streptavidin. Soluble BTN molecules or G115 γδTCR were two-fold serially diluted and simultaneously injected over test and control surfaces at a rate of 30 μl/min. After subtraction of data from the control flow cell (BTN1A1) and blank injections, interactions were analyzed using Biacore T200 evaluation software (GE Healthcare), Scrubber (Biologic) and Prism version 9 (GraphPad), and equilibrium dissociation constants were derived at equilibrium.
For assay [2], the target named is B2. Nature of the assay: SPR, equilibrium; BTN3A1 homodimer immobilised, soluble monomeric BTN2A1 ectodomain injected.
Method: as §1
For assay [3], the target named is T1, BTN2A1 ectodomain homodimer, …. The assay is described as follows: SPR, equilibrium; disulfide-linked BTN2A1 homodimer immobilised, soluble BTN3A1 ectodomain injected.
Method: as §1
The target is the same in assay [4]. The assay is described as follows: SPR, equilibrium; BTN2A1 homodimer immobilised, soluble BTN3A1 IgV domain injected.
Method: as §1
The target in assay [5] is B2. The assay is described as follows: SPR, soluble monomeric BTN3A1 IgV domain over immobilised BTN3A1 homodimer.
Method: SPR experiments were conducted at 25° C. on a Biacore T200 instrument (GE Healthcare) using 10 mM HEPES-HCl (pH 7.4), 150 mM NaCl, 3 mM EDTA, and 0.05% Tween 20 buffer. Biotinylated BTN ectodomains were immobilized to 1,500-2,000 resonance units (RU) on a Biacore sensor chip SA pre-immobilized with streptavidin. Soluble BTN molecules or G115 γδTCR were two-fold serially diluted and simultaneously injected over test and control surfaces at a rate of 30 μl/min.

Regarding B1, the binding result in assay [1] is “no binding”. The Kd in assay [2] was about 1800 µM.
B2 yielded a Kd in assay [3] of 500 µM.
With B3, the Kd in assay [4] was found to be 1100 µM. Moreover, the binding result in assay [5] is “no binding (tested: 1,590 µM)”.
